The record followed here is patent publication US20190085093A1 (SEOUL NATIONAL UNIVERSITY R AND DB FOUNDATION, published 2019).

Ends that are not written are not given here.

Assay [1] addresses T1, Akt1 (UniProt P31749 1-480).
T1 construct: Endogenous protein detected with an Akt1 antibody (LF-MA0245); also called endogenous Akt1
The assay is described as follows: immunofluorescence and PLA, A549 cells. The method, then:
A549 cells were placed in 8-well chamber cover glasses or high-precision cover glasses and were fixed with 3% paraformaldehyde for 10 minutes at room temperature, permeabilized with 0.5% Triton® X-100 (Sigma-Aldrich) for 5 min, blocked for 30 minutes. Then, the cells were incubated with primary or secondary antibodies in blocking solution (PBS with 0.1% saponin and 3% BSA). Alexa Fluor 647 conjugated anti-rabbit secondary antibody and an oxygen scavenging system (0.5 mg/ml glucose oxidase, 40 μg/ml catalase, 10% glucose, pH 7.4) were used for stochastic optical reconstruction microscopy (dSTORM) imaging. Before imaging, 30 mM mercaptoethylamine ([…]; Sigma) was added to obtain a final thiol concentration of 10-200 mM. All dSTORM and SIM images were obtained from Carl Zeiss ELYRA PS.1 (super-resolution microscopy), and all CLSM images were obtained from the Carl Zeiss LSM710 (confocal laser scanning microscope).
Immunofluorescence and PLA assays confirmed whether the F-BAR domain binds to Akt1 at the ICB and plasma membrane and FCHo1 and Akt1 interact in the midbody. […] Interaction of FCHo1 and Akt1 in the midbody was confirmed by PLA, and Calmodulin 1 was used as an ICB marker. The results are illustrated in FIG. 17.

Assay [2] has as its target T2, FCHo1-C-3×DDK (full-length wild-type FCHo1 with C-terminally fused 3×FLAG tag) (human, UniProt O14526 1-889).
T2 construct: Expressed in A549 cells and pulled down with anti-FLAG gel; also called FCHo1-FLAG; wt FCHo1; not shown: C-terminal 3×DDK (3×FLAG) tag of the pCMV6-C-3×DDK vector
T2 sequence (looked up): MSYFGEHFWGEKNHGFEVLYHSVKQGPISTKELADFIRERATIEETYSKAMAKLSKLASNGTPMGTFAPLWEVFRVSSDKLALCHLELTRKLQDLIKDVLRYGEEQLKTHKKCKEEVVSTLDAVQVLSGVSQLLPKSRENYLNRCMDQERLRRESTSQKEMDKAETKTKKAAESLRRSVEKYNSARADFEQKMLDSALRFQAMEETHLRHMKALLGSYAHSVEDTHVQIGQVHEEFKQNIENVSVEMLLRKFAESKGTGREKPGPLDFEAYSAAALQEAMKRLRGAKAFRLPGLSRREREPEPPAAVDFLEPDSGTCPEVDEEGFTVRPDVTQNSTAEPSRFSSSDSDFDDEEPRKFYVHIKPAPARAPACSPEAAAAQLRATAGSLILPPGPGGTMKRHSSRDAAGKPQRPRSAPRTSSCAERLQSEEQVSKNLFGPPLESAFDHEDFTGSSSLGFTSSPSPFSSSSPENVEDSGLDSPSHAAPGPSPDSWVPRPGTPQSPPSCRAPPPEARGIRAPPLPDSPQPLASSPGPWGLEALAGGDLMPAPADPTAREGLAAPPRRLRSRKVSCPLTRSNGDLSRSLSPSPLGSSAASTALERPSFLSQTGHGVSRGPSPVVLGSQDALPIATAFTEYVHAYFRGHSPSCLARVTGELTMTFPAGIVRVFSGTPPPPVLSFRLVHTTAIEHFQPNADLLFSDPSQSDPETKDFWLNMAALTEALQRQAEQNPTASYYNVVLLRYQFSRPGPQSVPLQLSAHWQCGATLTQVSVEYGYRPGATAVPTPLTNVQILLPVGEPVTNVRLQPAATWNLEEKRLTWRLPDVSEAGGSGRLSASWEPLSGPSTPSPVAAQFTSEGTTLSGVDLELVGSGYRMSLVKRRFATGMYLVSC
The assay is described as follows: co-immunoprecipitation with anti-FLAG antibody.

In assay [3] the target is T1, Akt1. In words: biotin peptide on streptavidin plate, cell lysate, detection with Akt1 antibody. The source says:
To confirm the binding affinity between Akt1 and Akt1 motif-containing FCHo1 amino acid sequence-derived peptides, biotin was conjugated to peptides to complete the synthetization. The peptides were reacted and attached to on the streptavidin-attached plate. After treating with the cell lysates, the binding affinity of the peptide and Akt1 was confirmed by the Akt1 antibody. The experiment process and its result of confirming in vitro binding affinity of Akt1 according to respective peptides derived from FCHo1 binding sites are illustrated in FIG. 28.

T1 sequence (P31749 whole entry): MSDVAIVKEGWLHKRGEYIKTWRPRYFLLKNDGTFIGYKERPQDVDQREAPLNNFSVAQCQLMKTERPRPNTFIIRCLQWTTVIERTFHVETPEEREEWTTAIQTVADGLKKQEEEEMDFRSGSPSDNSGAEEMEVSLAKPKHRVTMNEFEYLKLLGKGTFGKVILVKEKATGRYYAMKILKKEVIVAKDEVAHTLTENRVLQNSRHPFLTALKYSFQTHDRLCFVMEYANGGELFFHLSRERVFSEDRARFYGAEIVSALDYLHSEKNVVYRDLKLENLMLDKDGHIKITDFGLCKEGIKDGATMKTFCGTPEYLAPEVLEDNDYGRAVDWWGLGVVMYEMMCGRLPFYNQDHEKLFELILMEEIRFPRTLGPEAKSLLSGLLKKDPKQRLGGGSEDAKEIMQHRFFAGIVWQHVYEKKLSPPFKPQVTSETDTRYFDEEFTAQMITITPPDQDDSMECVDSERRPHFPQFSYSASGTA

B1: C-terminal (CT) fragment of FCHo1 cleaved at R563 (other, human, UniProt O14526 564-889, looked up)
chain: LRSRKVSCPLTRSNGDLSRSLSPSPLGSSAASTALERPSFLSQTGHGVSRGPSPVVLGSQDALPIATAFTEYVHAYFRGHSPSCLARVTGELTMTFPAGIVRVFSGTPPPPVLSFRLVHTTAIEHFQPNADLLFSDPSQSDPETKDFWLNMAALTEALQRQAEQNPTASYYNVVLLRYQFSRPGPQSVPLQLSAHWQCGATLTQVSVEYGYRPGATAVPTPLTNVQILLPVGEPVTNVRLQPAATWNLEEKRLTWRLPDVSEAGGSGRLSASWEPLSGPSTPSPVAAQFTSEGTTLSGVDLELVGSGYRMSLVKRRFATGMYLVSC
notes: Fragment in cells, seen by immunofluorescence and PLA with the α584-804 antibody
Take B1: the binding result with Akt1 [1] was “binds”.

B2: CT-fragment (564-889aa) of FCHo1-HA (other, human, UniProt O14526 564-889, looked up)
chain: B1 chain
notes: Cleavage product of FCHo1-HA in the cells, seen on the blot of the co-IP; not shown: C-terminal 3×HA tag
As to B2, the binding result in assay [2] is reported as “no binding”.

B3: peptide 560-571 of FCHo1 (PPRRLRSRKVSC), biotin-conjugated (peptide)
peptide: PPRRLRSRKVSC
modifications: also: biotin conjugated, position not given here
notes: Attached to a streptavidin plate by its biotin
Consider B3, for which the binding result in the assay with Akt1 [3] was “binds”.

B4: peptide 562-571 of FCHo1 (RRLRSRKVSC), biotin-conjugated (peptide)
peptide: RRLRSRKVSC
modifications: also: biotin conjugated, position not given here
notes: as for B3
For the molecule B4, the binding result in the assay with Akt1 [3] is given as “binds”.
